# Results taken from patent US20230313187A1, “MODIFICATIONS OF MAMMALIAN CELLS USING ARTIFICIAL MICRO-RNA TO ALTER THEIR PROPERTIES AND THE COMPOSITIONS OF THEIR PRODUCTS” (DNA TWOPOINTO INC., priority 2020, published 2023).
# Values joined by “and” are separate entries in the source; they are usually repeats but may differ in a detail not shown here. Identical values can stand only once.
# What was measured:
# Format in all cases: cell-based
# [1] = test system: Homo sapiens alpha-(1,6)-fucosyl transferase (FUT8) mRNA; assay: Inhibition of antibody fucosylation in HEK cell pools, amiRNA directed toward FUT8
# From the text: Two different multi-hairpin amiRNA sequences were designed to target genes involved in the fucosylation pathway in human cells: alpha-(1,6)-fucosyl transferase (FUT8), GDP-Mannose 4,6-dehydratase (GMD), and GDP-fucose transporter 1 (GFT). One Multi-hairpin amiRNA, with nucleotide sequence SEQ ID NO: 202 comprised three hairpins; the first hairpin comprised guide strand sequence SEQ ID NO: 29, immediately followed by loop sequence SEQ ID NO: 241 and passenger strand sequence SEQ ID NO: 114, the second hairpin comprised guide strand sequence SEQ ID NO: 30, immediately followed by loop sequence SEQ ID NO: 241 and passenger strand sequence SEQ ID NO: 115, the third hairpin comprised guide strand sequence SEQ ID NO: 31, immediately followed by loop sequence SEQ ID NO: 241 and passenger strand sequence SEQ ID NO: 116. Each of these three guide strand sequences was a 22 base sequence that was an exact reverse complement of a different region within the Homo sapiens alpha-(1,6)-fucosyl transferase (FUT8) mRNA. Each passenger strand sequence was complementary to its corresponding guide strand sequence, except that the bases in the passenger strand sequences corresponding to the 5′ base of the guide strand and the twelfth base of the guide strand were changed to be non-complementary. The first and twelfth bases of guide strand with SEQ ID NO: 29 are T and T respectively, the corresponding bases in the corresponding passenger strand sequence SEQ ID NO: 114 are C and C respectively. The first and twelfth bases of guide strand with SEQ ID NO: 30 are T and T respectively, the corresponding bases in the corresponding passenger strand sequence SEQ ID NO: 115 are C and C respectively. The first and twelfth bases of guide strand with SEQ ID NO: 31 are T and A respectively, the corresponding bases in the corresponding passenger strand sequence SEQ ID NO: 116 are C and C respectively. Each hairpin in multi-hairpin amiRNA nucleotide sequence SEQ ID NO: 202 further comprised additional stem-stabilizing sequences, with stem sequence SEQ ID NO: 255 immediately preceding the guide strand sequence, and stem sequence SEQ ID NO: 256 immediately following the passenger strand sequence. Multi-hairpin amiRNA nucleotide sequence SEQ ID NO: 202 further comprised an unstructured sequence with SEQ ID NO: 251 to the 5′ of the first hairpin, and an unstructured sequence with SEQ ID NO: 253 to the 3′ of the third hairpin. […]
# The multi-hairpin amiRNA sequences were placed to the 3′ of an open reading frame encoding a red fluorescent protein (with nucleotide sequence SEQ ID NO: 279) and followed by a rabbit globin polyadenylation sequence. […]
# [2] = test system: Cricetulus griseus interferon receptor subunit 1 mRNA; assay: Expression of human interferon beta from CHO cells (ELISA), amiRNA to interferon receptor subunit 1; conditions: for Titer: 10-day fed batch
# From the text: One multi-hairpin amiRNA, with nucleotide sequence SEQ ID NO: 598, comprised four hairpins; the first hairpin comprised a guide strand with nucleotide sequence SEQ ID NO: 95, immediately followed by a loop with nucleotide sequence SEQ ID NO: 241 and passenger strand with nucleotide sequence SEQ ID NO: 180, the second hairpin comprised a guide strand with nucleotide sequence SEQ ID NO: 97, immediately followed by a loop with nucleotide sequence SEQ ID NO: 241 and passenger strand with nucleotide sequence SEQ ID NO: 182, the third hairpin comprised a guide strand with nucleotide sequence SEQ ID NO: 96, immediately followed by a loop with nucleotide sequence SEQ ID NO: 241 and a passenger strand with nucleotide sequence SEQ ID NO: 181, the fourth hairpin comprised a guide strand with nucleotide sequence SEQ ID NO: 98, immediately followed by a loop with nucleotide sequence SEQ ID NO: 241 and a passenger strand with nucleotide sequence SEQ ID NO: 183. Each of these four guide strand sequences was a 22 base sequence that was an exact reverse complement of a different region within the Cricetulus griseus interferon receptor subunit 1 mRNA (with nucleotide sequence SEQ ID NO: 19. Each passenger strand sequence was complementary to its corresponding guide strand sequence, except that the bases in the passenger strand sequences corresponding to the 5′ base of the guide strand and the twelfth base of the guide strand were changed to be non-complementary.
# (§1) Each of the five polynucleotides was a transposon which further comprised a left end comprising a 5′-TTAA-3′ target sequence immediately followed by an ITR with SEQ ID NO: 423 (which is an embodiment of SEQ ID NO: 421) and additional sequence with SEQ ID NO: 417 and a right end comprising SEQ ID NO: 419 immediately followed by an ITR with SEQ ID NO: 424 (which is an embodiment of SEQ ID NO: 422) immediately followed by a 5′-TTAA-3′ target sequence. Each transposon further comprised a gene encoding a glutamine synthetase selectable marker. […] Each transposon further comprised the same promoter operably linked to an open reading frame encoding human interferon beta. […]
# (§2) Transposons were co-transfected with mRNA encoding transposase with polypeptide sequence SEQ ID NO: 502 into a CHO host lacking a functional glutamine synthetase gene. […] Interferon beta levels in the culture supernatant were measured using an ELISA assay.
# (§3) Table 11. […] Transposons for the expression of human interferon beta were constructed, transfected and expressed as described in Section 6.4.1. The amiRNA SEQ ID NO is shown in column A. Following a 10-day fed batch of duplicate cultures for each sample, the concentration of interferon was measured by ELISA. Measured interferon concentrations in culture supernatants are show in columns B and C. […]
# [3] = test system: Cricetulus griseus interferon receptor subunit 2 mRNA; assay: Expression of human interferon beta from CHO cells (ELISA), amiRNA to interferon receptor subunit 2; conditions: for Titer: 10-day fed batch
# From the text: One multi-hairpin amiRNA, with nucleotide sequence SEQ ID NO: 599, comprised four hairpins; the first hairpin comprised a guide strand with nucleotide sequence SEQ ID NO: 103, immediately followed by a loop with nucleotide sequence SEQ ID NO: 241 and passenger strand with nucleotide sequence SEQ ID NO: 188; the second hairpin comprised a guide strand with nucleotide sequence SEQ ID NO: 104, immediately followed by a loop with nucleotide sequence SEQ ID NO: 241 and passenger strand with nucleotide sequence SEQ ID NO: 189; the third hairpin comprised a guide strand with nucleotide sequence SEQ ID NO: 102, immediately followed by a loop with nucleotide sequence SEQ ID NO: 241 and a passenger strand with nucleotide sequence SEQ ID NO: 187; the fourth hairpin comprised a guide strand with nucleotide sequence SEQ ID NO: 105, immediately followed by a loop with nucleotide sequence SEQ ID NO: 241 and a passenger strand with nucleotide sequence SEQ ID NO: 190. Each of these four guide strand sequences was a 22 base sequence that was an exact reverse complement of a different region within the Cricetulus griseus interferon receptor subunit 2 mRNA (with nucleotide sequence SEQ ID NO: 20). Each passenger strand sequence was complementary to its corresponding guide strand sequence, except that the bases in the passenger strand sequences corresponding to the 5′ base of the guide strand and the twelfth base of the guide strand were changed to be non-complementary.
# as §1, §2, §3
# [4] = control transposon expressed 48 μg/ml
# [5] = interferon beta in supernatant, first of duplicate cultures
# [6] = interferon beta, second of duplicate cultures
molecule,measurement,setting,value
"SEQ ID NO: 202: three-hairpin amiRNA, guides SEQ ID NOs 29, 30, 31 complementary to Homo sapiens FUT8 mRNA (nucleic acid) ATCTGATCTTCTGAAGAAAATATATTTCTTTTTATTCATAGCTCTTAACTAGTGGTGATAGCAATGTCAGCAGTGCCTTTGGTCGTTTATCTCTTCCATCGTGAAGCCACAGATGGATGGAAGAGCTAAACGACCACAAGTAAGGTTGACCATACTCTACTCTAGAGTTGTGTTTTAATGTATATTAATGTTACTAATGTGTTTACTAGTGGTGATAGCAATGTCAGCAGTGCCTTTCATCTACAGTTTGGCTGAAAGTGAAGCCACAGATGTTTCAGCCAACCTGTAGATGACAAGTAAGGTTGACCATACTCTACTCTAGGTTATTTTTAGTATGATTCTGTAAAAATGAATTAATACTAACTAGTGGTGATAGCAATGTCAGCAGTGCCTTTAAATTACACAATATGGCAGTGTGAAGCCACAGATGACTGCCATATCGTGTAATTTACAAGTAAGGTTGACCATACTCTACTCTAGTCAGTTTTATTGATAGTCTTTTCAGTATTATTGATAATCTT",G0 + G1 % (area),"[1]; afucosylated antibody, HEK pool, 7-day transient culture, listed as 202",90 % (area) and 89 % (area)
same,Titer,"[1]; antibody in culture supernatant, HEK pool, 7-day culture, listed as 202",353 mg/L and 316 mg/L
same,reduction of antibody fucosylation,[1]; both replicates of HEK cell pools (Table 3 rows 3 and 4),approximately 90%
same,G0F + G1F (% area),"[1]; fucosylated antibody, HEK pool, 7-day transient culture, listed as 202",10 % area and 11 % area
"SEQ ID NO: 598: four-hairpin amiRNA, guides SEQ ID NOs 95, 97, 96, 98 to Cricetulus griseus interferon receptor subunit 1 mRNA (nucleic acid) ATCTGATCTTCTGAAGAAAATATATTTCTTTTTATTCATAGCTCTTAACTAGTGGTGATAGCAATGTCAGCAGTGCCTTAAAATAACACACAAGAGCCATGTGAAGCCACAGATGATGGCTCTTGCGTGTTATTTTCAAGTAAGGTTGACCATACTCTACTCTAGTTATATTCTTTAGGCACGAATGTGTGTTTAAAAAAAATAAAAACTAGTGGTGATAGCAATGTCAGCAGTGCCTTTAAACAGTAAGTAGTCTCTGGGTGAAGCCACAGATGCCAGAGACTAATTACTGTTTACAAGTAAGGTTGACCATACTCTACTCTAGAGTTGTGTTTTAATGTATATTAATGTTACTAATGTGTTTACTAGTGGTGATAGCAATGTCAGCAGTGCCTTTGGGTGTTAATAAAAAGGCAGGTGAAGCCACAGATGCTGCCTTTTTCTTAACACCCACAAGTAAGGTTGACCATACTCTACTCTAGGTTATTTTTAGTATGATTCTGTAAAAATGAATTAATACTAACTAGTGGTGATAGCAATGTCAGCAGTGCCTTTCATTTTGACATACATACTTGGTGAAGCCACAGATGCAAGTATGTACGTCAAAATGACAAGTAAGGTTGACCATACTCTACTCTAGTCAGTTTTATTGATAGTCTTTTCAGTATTATTGATAATCTT",Average Titer,[2]; average of duplicate cultures,34.5 µg/mL
same,interferon beta expression compared with the control transposon,[2]; [4],a small decrease in interferon beta expression
same,Titer,[2]; [5],22.8 µg/mL
same,Titer,[2]; [6],46.1 µg/mL
"SEQ ID NO: 599: four-hairpin amiRNA, guides SEQ ID NOs 103, 104, 102, 105 to Cricetulus griseus interferon receptor subunit 2 mRNA (nucleic acid) ATCTGATCTTCTGAAGAAAATATATTTCTTTTTATTCATAGCTCTTAACTAGTGGTGATAGCAATGTCAGCAGTGCCTAAGACTATCAGCAAGAACCAGGGTGAAGCCACAGATGCCTGGTTCTTACTGATAGTCTCAAGTAAGGTTGACCATACTCTACTCTAGTTATATTCTTTAGGCACGAATGTGTGTTTAAAAAAAATAAAAACTAGTGGTGATAGCAATGTCAGCAGTGCCTTTGAAGATAACTTTGTCCCCGGGTGAAGCCACAGATGCCGGGGACAACGTTATCTTCACAAGTAAGGTTGACCATACTCTACTCTAGAGTTGTGTTTTAATGTATATTAATGTTACTAATGTGTTTACTAGTGGTGATAGCAATGTCAGCAGTGCCTTAAACAACAATGGATCCCCAAAGTGAAGCCACAGATGTTTGGGGATCAATTGTTGTTTCAAGTAAGGTTGACCATACTCTACTCTAGGTTATTTTTAGTATGATTCTGTAAAAATGAATTAATACTAACTAGTGGTGATAGCAATGTCAGCAGTGCCTTTGCTCATGATTGTGAACCAAAGTGAAGCCACAGATGTTTGGTTCACCATCATGAGCACAAGTAAGGTTGACCATACTCTACTCTAGTCAGTTTTATTGATAGTCTTTTCAGTATTATTGATAATCTT",Average Titer,[3]; average of duplicate cultures,99.3 µg/mL
same,interferon beta expression compared with the control transposon,[3]; [4],as much as twice the expression levels of interferon beta as the control transposon
same,Titer,[3]; [5],92.9 µg/mL
same,Titer,[3]; [6],105.7 µg/mL
